Data as given in the DeepSol protein solubility set.

Test: soluble on expression in E. coli; label from the status in PepcDB or PDB records

Row | Sequence | soluble on expression in E. coli
1 | MGSDKIHHHHHHMTKSKNNPGRGNTIRESNTMKVMEEIREKIRKAIKEGVSLREIEEIILQEAMMEEREAYLEVEDDHKNGTYFRYLGTGDGVLRLRVPRTRKGGFRPKILPEKYERTSPDYEDFLQQLVLSGMTPSQVKAVLAAKGIPYSEIVMNRVAERISNKLKEYKSRELPHDLLALYIDVKIVKVRISESIMERAIYIAIGVDLEGNKFVLDYEVRDREDLDGWKSFLSGLVSRGVSRVDVIVSDDFSGLDRVVSTLFPSSQHQLCITHMVRNLMRVLPDKEKEELMIRVRDLKSSRNVEEGRKAILSLSQLVQPFSPARAKRLLDAADKYCSFLNFPREIRHYLYTNNTSESFNLTLARFEEELGGYFPSLRSLEVYLYVSIHESNSRWKFRPMSVIRHYSYHLKQLHASRFQVSLDEDF | not soluble
2 | SKDQHLRGFFSDSTSFNILMDMLFIKGKYKSALQVLIEMKNQDVKFTKDTYVLAFAICYKLNSPESFKICTTLREEALLKGEILSRRASCFAVALALNQNEMAKAVSIFSQIMNPESIACINLNIIIHIQSNMLENLIKTLKNAAEGNLSKFVKRHVFSEEVLAKVREKVKDVPALVAKFDEIYGTLHITGQVTTDSLDAVLCHTPRDRKSHTLLLNKRMVSRRTFQPLSQSLLAE | soluble
3 | MGSSHHHHHHSSGLVPRGSEHLKNISPIDGRYKKACGELSAFFSEHALIKHRIIVEVRWLLFLNEEELFFEKVTDHSVEVLNQIATNITDSDIARVKAIEEETNHDVKAVEYFVKEKLKNSKREDLLKIKEYVHYLCTSEDINNVAYATCLKACLNDVVIPCLEKIMLKLKDLAVEYSHVPLLSRTHGQPASSTTFGKEMANFYARIHHHVGVIRRVKVCAKFNGAVGNFNAHKVASKDTDWVNTIGLFLKKHFNLTYSIYCTQIQDHDYICELCDGLARANGTLIDLCVDIWLYISNNLLKLKVKEKEVGSSTMPHKVNPIDFENAEGNLHIANAFFKLFSSKLPTSRLQRDLSDSTVLRNIGSSLAYCLIAYKSVLKGLNKIDIDRRNLEEELNQNWSTLAEPIQIVMKRHNYVDAYEELKQFTRGKVIDQKIMQEFIKTKCAFLPQDVVDQLLELTPATYTGYADYLAKNVERLSGERD | soluble
4 | GSLILDGDLLKDKLKLPVIDNLFGKELLDKFQDDIKDKYGVDTKDLKILKTSEDKRFYYVSVDAGDGEKCKFKIRKDVDVPKMVGRKCRKDDDDDDGY | soluble
5 | MSLDAMAKILLVEDSATQAVEMTMLLQAANHEVVHVANGQLGLSHLKEQAPDLVITDLEMPEINGLQLVESMRANFSHIPSILVTSHGSEELAAEALRRGAAGYVPKTRMSDLLNDTIVDVLGVIRSDASYAKLISTLKKNVFVFDLPSDPELISPLVGLLMQVSAGMELLPSIEMVRLGVAVEHSLTNAMLHGNLEIPRDKQPSHGQLAREGMINDAMKERLSQEPYKSRVTHVEATASEHAIRIVITDQGPGFDTSNVPQAGELDASSLAASADGVGQADKQGLLLIASFVDQMWFNDEGNQITLVKRCGAEGHHHHHH | not soluble
6 | MGSDKIHHHHHHMPSDASRRLYERLGIPLLPMDSPFGPEYPIGNKFAALALGPAVGHTLFLDSDMICVDAFEADMLCRFDAALKPADMALVAKQNDYWERIYAHAGSALPGDRVVTTCSGEAMPAYYNAGFILVRDARRFAEVWYRLAERVHADPLITNKMPWLDQLTLPVALHALNYKTRALSERFNYPLHIKPLSAASLPPFFCHYHSLDTLVSERSLWAELDELAKRFPELREVLALDANWKKAILAPAPRLAFSEGDSTGTVEAGQDLVITGIPRSGTSHLCRLLSQQPDTVVLNEPPQVFEALKLSPLPWGLPRYYAELRRDILAGRPVPNKHVNGRLVDDTARGNDQSSDYFAEVRGASFHLGTKNTLAYIARLPLIRKVMPTALLIATIRHPYDTLNSWANTFEHLRQAAVERQPFGCPDDLALTGWQRKALLAIADTDHLAVRRALWWRYLALQLEDAGDYVQLLRYEDFVEAPQTTLAALRNNRPLPFDEPAVWSKGLAPDEQELVANIVCDVAERFHYVL | not soluble
7 | MSGASSITATEPYRDVQIRPAVAPDVARVAAIDEAATGEAKPRYWQSLFENFSQARAGCRAFLIAELKGEVVGFICGEVRDFEFGAESCGWVFALTVDPAIRVNSIGTQLFEEICQIFTQAGVRKVRTMIEHDNQLVMAFFRSQGLMVGRFIGMEKNLD | soluble
8 | KNYDLSDLPGPPSKPQVTDVTKNSVTLSWQPGTPGTLPASAYIIEAFSQSVSNSWQTVANHVKTTLYTVRGLRPNTIYLFMVRAINPQGLSDPSPMSDPVRTQD | soluble
9 | MAKHHPLTDWLPTSKKEMEAKGWDEADVILFSGDAYVDHPSFGAAVVGRILEAEGLRVAIVPQPNWRDDLRDFRKLGRPRLFFGVSAGAMDSMVNKYTANRRLRSEDAYTPDRRSDMRPDYPTIVYTRILKELFPDVPVIVGGIEASLRRLTHYDYWQDKLLPGILYQSGADLLIYGMGELPLHEIAQRLIAGEPFDSLKSIRQIAYLVPKGKTPVPCENDRHLFSHEECLSDKRKQAQNFREIEIQSNRYEADRILQAVGDSTIVVNPPFPPMSTAQIDQSFDLPYTRLPHPRYKGKIISAYEMIKHSVNVHRGCFGGCAFCTISAHQGKFIASRSEASVLREVKEITEMEDFKGYLSDVGGPSANMYKMQGYDLSICKRCKKPSCIHPNVCPNLNADHRPLLDLLRRIDKNPKIKKSFIGSGVRMDLLLHNYKDKVLKKAADEYTEDLIVKHVSGRLKVAPEHSSDRVLNLMRKPPFRQFAEFTKRFQRINEAHGLRQQLIPYFISSHPGCTEEDMAELAILTKKLDFKLEQIQDFTPTPMTLATEMYYTGYHPYTLQPVYTAIKKEEKMRQHMFFFWYKREEADKIRRELHRIGRPDLIAKLFDRTTSSRNDRHTPPSTQPRKSKSKSRHS | not soluble
10 | MKLSQVVVSAVAFTGLVSAANSSNSSSSKNAAQPIAGLNNGKVAGAAGVALAGALAFLI | soluble
11 | SDRKSDRELLYFRKKLQRKLGPISIATPEALLNAHEMLRDKMHYFIEQTQCSVGIFIHRGFKHAGKVLLLMENEGDEELLAYARSLARNNGSVLDVLPETDGLPPTLSMGENRLKAGLPSTINISSYHFMLVSYRYWLRFAGECPSVIEHLPSTIIIHHRNDRSSTLKAAMI | not soluble
12 | MLVENLAHFSADTRFEADLVIIGGGPAGLTVARELRGAPLRVLIVESGLLEEAPQANELSTLESIGEPNAPHQIQKRIAFHGANCRSWTQDLQPYGVRCRALGGSTHAWAGKSAAFDDIDFQERAWVPHSGWPMDRSSLDPFLDRAADILNLGPNRYDDTLWTLLGISPPEPQLGTQGLRSFFWQFSRSRVDPLDIMRFGADFLRLEADNIRVLLNATATRLDLTQEGDGFRGLEIATNDGQRHTVHAKAAVIAGGGIENARLLLASTTIHANGVGNQYDLVGRFLMDHAGARIARFGGSNANQIMRRFGFYGLRNSGRTSMYMHGLAITPEMQEREHLLNSAIYFMPEHAADDPWDAVKRLLTGKSKRQVKDAMRAIAGAGLLGKGAAMKLLSSDRLPVAVKDFIVQTAIRYMPNVAADDFLSRGVPHKVTDVWIDAISEQQPDPDSRITLSEKTDRLGLPLARVNWKINADERRTIMRLGHIVESAFAQARLPKPILEPWVAEGAFNDAVIIDMAHSMGTTRMSASARSGVVDEQCQVHGVRDLYIAGSSIFPTSGHANPTLMIVAFAVRLADRIRQTLL | not soluble
13 | MSVDPACPQSLPCFEASDCKESSPMPVICGPEENYPSLQMSSAEMPHTETVSPLPSSMDLLIQDSPDSSTSPKGKQPTSAENSVAKKEDKVPVKKQKTRTVFSSTQLCVLNDRFQRQKYLSLQQMQELSNILNLSYKQVKTWFQNQRMKSKRWQKNNWPKNSNGVTQKASAPTYPSLYSSYHQGCLVNPTGNLPMWSNQTWNNSTWSNQTQNIQSWSNHSWNTQTWCTQSWNNQAWNSPFYNCGEESLQSCMHFQPNSPASDLEAALEAAGEGLNVIQQTTRYFSTPQTMDLFLNYSMNMQPEDV | soluble
14 | MVSYGSHSSEVSKVLKTPKFVLRYGNVSSKQRFALKRKINYKLRESKYQEYLNEYNTFVLYDWENSGAGSLVDSSYNLPSLWKEFITEGISKGAINDKLPTVFMKRKLTNSALGHCLGLDFLTDPSESEHEYRCMFQTVQDIPSLSQLILFNSMPNVPVRLKLHTIGININFGCKRSLISNGGDQDTEMSEAVSYIQPLLEESSRMYRNLNYWKLLKIARNNKKDEPLDQSTRIKSQVKLLLSQLATNRITSPSVTDHGGHNWLIFTRRRL | not soluble
15 | MSLELFKSVKLDKNSGTPLYMQLSDKIAEMIENGILPADLKLPSIRQMSALLNVNSVTIVSCYKHLETKGYVYSRPGSGTYVAVVLPKQSENYSDRNIILDELYQSDDLNLINNGHIKINENTINFASATPKSSLFPVENFKLVLNEVLDRDRGNAFDYQDSQGYYPLRSSVRILLEKRKIACHEENIQIISGAQQGIDIIAKALLRQGDYVITESPTYTGAIAVFKSRGAEIADVPLSCDGPNLNILEYNLKKYKPKLIYTIPSFQNPTGISYSNEKRKEILALAERYDAYIIEDDYVSGLDFENMGFATVKSMDKSDRVIFLKSFSKIFMPGLRLGFMVVPSSLKSYIIEAKHATDISTSGLIQRAFDLYIRKGMWDGHFKLMFNIYKERYYKTIEALERHLPQNVQFHKPGGGLNIWLELPANCFTGSLLKAASAENIVFAPGRIFYSSTPTNLNNIRLSFAAVDADEIERGIEKLSELILRFDRNKSEGHHHHHH | soluble
16 | MGSDKIHHHHHHMYFNVYGHAGKPIIVFPSSGGSQNEYGDFGMIEACQSFIDRGVVKFYTPDSLDRESWLAEGKSGHDMALAHEAYDRYIVHELVPLIRYESNWNGMMMATGCSMGAFHTVNFSLRHPDLFDISVALSGVYDARFFTGEFYGDPAVYYNSPIDYLWNQEDSWFLDRYRRNRFIVAVGQGAWEEPHIIDTIRLKEAFEAKSIPAWFDFWGSDVAHDWEWWRVQMPYFLGKLEEEGRI | not soluble
17 | MKIMINPKYEYLREYVERIPKDFETIGTVIHSGRNLIKMITVDGLDINVKRYTIPPLINRIAYAFFRPSKGKRAFVYPEKLLEKGFETPCPIAYIEETKMGLIGHSYFMSIQSPYRYNFCQFGNADIKSCEDVVTAFAEFTARLHEAGILHLDYSPGNILYDKIGEEYHFSLVDINRMHFGEVDIKKGCANFARLWGQTPFFILLGKEYAHSRGMDEEECVRLVLHYRKKFWNRYRRRHQVWFQLDI | not soluble
18 | TSHHHHHMKKIEHKMVAVNGLNMHLAELGEGPTILFIHGFPELWYSWRHQMVYLAERGYRAVAPDLRGYGDTTGAPLNDPSKFSILHLVGDVVALLEAIAPNEEKVFVVAHDWGALIAWHLCLFRPDKVKALVNLSVHFSKRNPKMNVVEGLKAIFGEDHYISRFQVPGEIEAEFAPIGAKSVLKKILTYRDPAPFYFPKGKGLEAIPDAPVALSSWLSEEELDYYANKFEQTGFTGAVNYYRALPINWELTAPWTGAQVKVPTKFIVGEFDLVYHIPGAKEYIHNGGFKKDVPLLEEVVVLEGAAHFVSQERPHEISKHIYDFIQKF | soluble
19 | MDHSLNSLNNFDFLARSFARMHAEGRPVDILAVTGNMDEEHRTWFCARYAWYCQQMMQARELELEH | soluble
20 | MVQFLAQMPTGTSSFQAAITENEEGRLFEKYGQLLQESPPASNRPSLGIEGASGLPRPGMCPGRDCSPGSCLAALCPRPPPLYLMVPGKASGMAEAELRATLPCSCGSIPLSTPKR | soluble
21 | MLNTIVLIRTDNFDKALTALADLVRYGGMKIRGTPRIIPPALSDWAFEQIVGEKPKKKVKAHVVAQIDLPASKAIGRIRDIHPPAHIIVIPVGSPVHKELLRLWGTFKELKGFHPPKEIKRLENIENEEDLELEHHHHHH | not soluble
